Test results published in patent US6309872A, “Polypeptides having glucoamylase activity and nucleic acids encoding same” (Novozymes Biotech, Inc, priority 2000, dated 2001).

Substrate: OC[C@H]1O[C@H](O[C@H]2[C@H](O)[C@@H](O)[C@@H](O[C@H]3[C@H](O)[C@@H](O)C(O)O[C@@H]3CO)O[C@@H]2CO)[C@H](O)[C@@H](O)[C@@H]1O
Assay: purified protein, by the assay type
Conditions: other: maltotriose hydrolysis at pH 4, enzyme 11 μg/ml or 0.18 μM

B1: Thielavia terrestris ATCC 20627 glucoamylase, wild type, recombinant (expressed in Aspergillus oryzae), SEQ ID NO:2 (Thermothielavioides terrestris NRRL 8126) (protein)
chain: PEASRVRREGEVVKRSVDSFIATESPIALSNLLCNIGSTGCHASGVASGIVVASPDKTNPDYWYTWTRDSALTFKCVVDTFTNSYDASLQAEIQNYIVAQAHLQGVSNPSGSLSDGSGLGEPKFNVDMSQFTGAWGRPQRDGPALRAIALIAYSKWLISNGYTSTASSIVWPVIKNDLAYVAQYWNNTGFDLWEEVSGSSFFTVANQHRALVEGAALATSLGTSCSACSAVAPQILCFLQSFWSPSSGYILANINENNGRSAKDANTLLGSIHTFDPAAGCDAATFQPCSDRALANHKVVTDAFRSIYSINSGIAEGSAVAVGRYPEDSYFGGNPWYLNTLAAAEQLYDALYVWKKQGSITVTSTSLAFFKDFSSSITPGTYSSSTSTYTTLYNAISAYADGYMNIVAQYAQTNGSLSEQFSKTNGEPLSAYDLTWSYAAFLTAAARRAGVVPPSWGAASANSVPAQCSATSVVGSYTSATATSFPPSQTPASSTSAGSSPASSTTATATACSTPTAVAVTFNERVTTQWGQTIKVVGDAAALGGWDTSKAVPLSAAGYTASDPLWSGTVDLPAGLAVQYKYINVAADGGVTWEADPNHSFTVPAACGTTAVTRDDTWQ
For B1, the Km was 330 ± 70 µM and the kcat was “(5.5±0.5)×10^3 min^-1”.
